{"source": "the RNAGym collection of RNA variant scans (doi:10.1073/pnas.2313332121)", "parents": {"B1": {"name": "TPR t1 (parent)", "chain": "GACCAAUCUGCCCUCAGAGCUCGAGAACAUCUUCGGAUGCAGAGGAGGCAGGCUUCGGUGGCGCGAUAGCGCCAACGUCCUCAACCUCCAAUGCAUCCCACCACAUGAUGAUGCCUGAAGAGCCUUGGUUUUUUG"}}, "data": [{"variants_of": "B1", "assay": "polymerase ribozyme fitness, log enrichment relative to wild type (log ratio); higher = more active; in vitro selection for triplet polymerase activity", "method_in_brief": "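Genotype fitness is the logarithm of its enrichment divided by wild-type enrichment, using inverse-variance-weighted averages of replicates. That logarithm is base 2. Enrichment was measured by Illumina sequencing of input and output libraries from one triplicate in vitro selection round, with frozen incubation at −7 °C, on PCR-built, transcribed mutant libraries of each subunit of a heterodimeric triplet polymerase ribozyme, retaining genotypes with ≥10 input reads and ≥1 read per output.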", "values": [{"variant": "C20U C56G G63C", "polymerase ribozyme fitness (log ratio)": -5.5}, {"variant": "U7A G17U A111C G135U", "polymerase ribozyme fitness (log ratio)": -3.91}, {"variant": "G19U G71A", "polymerase ribozyme fitness (log ratio)": -3.31}, {"variant": "A83C C104A C115U", "polymerase ribozyme fitness (log ratio)": -4.27}, {"variant": "C73G C123G", "polymerase ribozyme fitness (log ratio)": 1.2}, {"variant": "A43C G61U G117A", "polymerase ribozyme fitness (log ratio)": -3.52}, {"variant": "C72A G120C", "polymerase ribozyme fitness (log ratio)": 1.31}, {"variant": "C8G U9G G10U", "polymerase ribozyme fitness (log ratio)": -0.244}, {"variant": "C8U G10C C13A C49G C53A C101A U133A", "polymerase ribozyme fitness (log ratio)": -3}, {"variant": "C12U G45U G57A G60A U116G", "polymerase ribozyme fitness (log ratio)": -1.77}, {"variant": "G71C C72G C123G", "polymerase ribozyme fitness (log ratio)": -5.34}, {"variant": "G17A G48C C49G A84U C124U", "polymerase ribozyme fitness (log ratio)": -2.52}, {"variant": "C13U G51U U116C", "polymerase ribozyme fitness (log ratio)": -3.09}, {"variant": "C31G C80G A100U C101G A103U G120C", "polymerase ribozyme fitness (log ratio)": -7.23}, {"variant": "C12U A43G C72U C123A", "polymerase ribozyme fitness (log ratio)": 0.368}, {"variant": "G61A C62G A75G A95U A121C", "polymerase ribozyme fitness (log ratio)": -5.37}, {"variant": "C12G G42A G57C C72U U125C", "polymerase ribozyme fitness (log ratio)": -4.98}, {"variant": "A29G G36A C53U U55C G69U G127C", "polymerase ribozyme fitness (log ratio)": -4.42}, {"variant": "C4U C22U", "polymerase ribozyme fitness (log ratio)": -4.42}, {"variant": "U7A G10A G52U C62G", "polymerase ribozyme fitness (log ratio)": -2.23}, {"variant": "A41U G71A U92A G127C", "polymerase ribozyme fitness (log ratio)": -3.79}, {"variant": "A5C A29U A121G", "polymerase ribozyme fitness (log ratio)": -0.781}, {"variant": "C70G U133G", "polymerase ribozyme fitness (log ratio)": -3.44}, {"variant": "U7C G42C C72A C88U C115U", "polymerase ribozyme fitness (log ratio)": -1.49}, {"variant": "G10A C11U", "polymerase ribozyme fitness (log ratio)": -0.673}, {"variant": "A6G C11A U92G", "polymerase ribozyme fitness (log ratio)": -4.04}, {"variant": "C4A U7A G71A", "polymerase ribozyme fitness (log ratio)": -1.76}, {"variant": "G47A C62A C70A", "polymerase ribozyme fitness (log ratio)": -4.43}, {"variant": "A5U A41C G77A G110A A121C U130A", "polymerase ribozyme fitness (log ratio)": -5.22}, {"variant": "C12U U109G", "polymerase ribozyme fitness (log ratio)": -3.6}, {"variant": "A6U G60A U81A C99U", "polymerase ribozyme fitness (log ratio)": -5.5}, {"variant": "G61A C99U", "polymerase ribozyme fitness (log ratio)": -2.85}, {"variant": "C3U C8A A16G A43C C79A C88U C124A U125A U132C", "polymerase ribozyme fitness (log ratio)": -3.17}, {"variant": "A29U G44U", "polymerase ribozyme fitness (log ratio)": -3.06}, {"variant": "C13U C56U U92G G93C C115A G120A", "polymerase ribozyme fitness (log ratio)": -0.609}, {"variant": "G61U A121G", "polymerase ribozyme fitness (log ratio)": 2.12}, {"variant": "U14C A26G A50G G52C U106C G117A", "polymerase ribozyme fitness (log ratio)": -5.87}, {"variant": "U7A G47A U96A", "polymerase ribozyme fitness (log ratio)": -1.96}, {"variant": "C12G G128A", "polymerase ribozyme fitness (log ratio)": -1.65}, {"variant": "G69C A91C G113U", "polymerase ribozyme fitness (log ratio)": -4.43}, {"variant": "G45U U92C", "polymerase ribozyme fitness (log ratio)": -2.47}, {"variant": "A18G G63C C85U G110U", "polymerase ribozyme fitness (log ratio)": -3.81}, {"variant": "G47U C79G A100G C114G", "polymerase ribozyme fitness (log ratio)": -6.83}, {"variant": "G51C C53G C94G", "polymerase ribozyme fitness (log ratio)": -5.44}, {"variant": "C13U C53U C114A G120C", "polymerase ribozyme fitness (log ratio)": -1.1}, {"variant": "C53U A84U U126C", "polymerase ribozyme fitness (log ratio)": -1.72}, {"variant": "G10U A26C A74G A90U G120A", "polymerase ribozyme fitness (log ratio)": -5.63}, {"variant": "C20U C53A A111G C114U", "polymerase ribozyme fitness (log ratio)": -7.62}, {"variant": "C20A C22G G71A A121G", "polymerase ribozyme fitness (log ratio)": -3.88}, {"variant": "A26C G63A C82G A90G U112A", "polymerase ribozyme fitness (log ratio)": -5.15}, {"variant": "U78A A95U U112G U133A", "polymerase ribozyme fitness (log ratio)": 0.61}, {"variant": "G60U U130G", "polymerase ribozyme fitness (log ratio)": -0.482}, {"variant": "C11U C124G", "polymerase ribozyme fitness (log ratio)": 1.46}, {"variant": "U38G U55C G61A A91C A108C G110U C124A U126C", "polymerase ribozyme fitness (log ratio)": -6.93}, {"variant": "C22A C73U", "polymerase ribozyme fitness (log ratio)": -5.07}, {"variant": "C72U C79U C82A", "polymerase ribozyme fitness (log ratio)": -0.964}, {"variant": "G52U G63C", "polymerase ribozyme fitness (log ratio)": -0.581}, {"variant": "U55G C88A C115U C124A G128U", "polymerase ribozyme fitness (log ratio)": -4.24}, {"variant": "A6U G47A C62A C123A", "polymerase ribozyme fitness (log ratio)": -1.69}, {"variant": "C98U C99A A118U U130C", "polymerase ribozyme fitness (log ratio)": -5.55}, {"variant": "G42A C72A", "polymerase ribozyme fitness (log ratio)": -1.98}, {"variant": "C4A U87C G120A G127A", "polymerase ribozyme fitness (log ratio)": -0.66}, {"variant": "G93A C115A U131A", "polymerase ribozyme fitness (log ratio)": -0.388}, {"variant": "C13U G71C A95C", "polymerase ribozyme fitness (log ratio)": -1.52}, {"variant": "A68U C72U C82A G93C C115U G122A", "polymerase ribozyme fitness (log ratio)": -7.25}, {"variant": "A37U G42C G57C C70U U129A", "polymerase ribozyme fitness (log ratio)": -5}, {"variant": "C20U A37U C79U U112A", "polymerase ribozyme fitness (log ratio)": 0.591}, {"variant": "C4A G36C C104U A119G A121U G128U U129A", "polymerase ribozyme fitness (log ratio)": 0.665}, {"variant": "G61A C94U", "polymerase ribozyme fitness (log ratio)": -0.0774}, {"variant": "C56G G65A", "polymerase ribozyme fitness (log ratio)": -4.66}, {"variant": "U9G C102U", "polymerase ribozyme fitness (log ratio)": -1.48}, {"variant": "G71C C85A G117A", "polymerase ribozyme fitness (log ratio)": -2.67}, {"variant": "A43U U59G G110A", "polymerase ribozyme fitness (log ratio)": -5.07}, {"variant": "G52U C70U G113U", "polymerase ribozyme fitness (log ratio)": -5.82}, {"variant": "C8U A18U A37C G45U C53A G113A C124U", "polymerase ribozyme fitness (log ratio)": -2.69}, {"variant": "U14G C34A A121G", "polymerase ribozyme fitness (log ratio)": -0.374}, {"variant": "C3A A5C C13G G36A C79U A84U", "polymerase ribozyme fitness (log ratio)": -1.28}, {"variant": "C34G C123A", "polymerase ribozyme fitness (log ratio)": -6.76}, {"variant": "C28G A37C", "polymerase ribozyme fitness (log ratio)": -3.7}, {"variant": "U38G G93C A121U U133G", "polymerase ribozyme fitness (log ratio)": -1.6}, {"variant": "C12U A26G C56U C72U G117A U125G", "polymerase ribozyme fitness (log ratio)": -2.09}, {"variant": "C8U C13U C22G U59A U81C U109A", "polymerase ribozyme fitness (log ratio)": -5.73}, {"variant": "C40U C70U", "polymerase ribozyme fitness (log ratio)": -0.997}]}]}
